Substrate in the series: CCC=O
Nature of the series: purified protein. Particulars: 50 mM LiHPA, 2.4 mM TPP, 9 mM MgCl2, 250 mM NaCl, 50 mM Tris-HCl, pH 7.0, 21 °C. Format: biochemical, Escherichia coli.

From paper PMC3657141, “Directed evolution to re-adapt a co-evolved network within an enzyme” (Journal of Biotechnology, 2012) come the findings set out here.

B1: transketolase (TK) (Escherichia coli K-12; D469S) (protein)
chain: MSSRKELANAIRALSMDAVQKAKSGHPGAPMGMADIAEVLWRDFLKHNPQNPSWADRDRFVLSNGHGSMLIYSLLHLTGYDLPMEELKNFRQLHSKTPGHPEVGYTAGVETTTGPLGQGIANAVGMAIAEKTLAAQFNRPGHDIVDHYTYAFMGDGCMMEGISHEVCSLAGTLKLGKLIAFYDDNGISIDGHVEGWFTDDTAMRFEAYGWHVIRDIDGHDAASIKRAVEEARAVTDKPSLLMCKTIIGFGSPNKAGTHDSHGAPLGDAEIALTREQLGWKYAPFEIPSEIYAQWDAKEAGQAKESAWNEKFAAYAKAYPQEAAEFTRRMKGEMPSDFDAKAKEFIAKLQANPAKIASRKASQNAIEAFGPLLPEFLGGSADLAPSNLTLWSGSKAINEDAAGNYIHYGVREFGMTAIANGISLHGGFLPYTSTFLMFVEYARNAVRMAALMKQRQVMVYTHDSIGLGESGPTHQPVEQVASLRVTPNMSTWRPCDQVESAVAWKYGVERQDGPTALILSRQNLAQQERTEEQLANIARGGYVLKDCAGQPELIFIATGSEVELAVAAYEKLTAEGVKARVVSMPSTDAFDKQDAAYRESVLPKAVTARVAVEAGIADYWYKYVGLNGAIVGMTTFGESAPAELLFEEFGFTVDNVVAKAKELL
notes: 680 residues; homodimer
On to B1, for which the Km – broadly, the concentration of substrate that gives half-maximal velocity – was found to be 70.8 mM; the turnover number (kcat) (in general, the number of substrate molecules converted per active site and unit of time at saturation) was 0.952 ± 0.0567 s⁻¹; the specificity constant (kcat/Km) (as a rule, the turnover number divided by the Michaelis constant) was 13.5 ± 0.333 M⁻¹ s⁻¹.
